Measured values: PMC9482650, “Quantitative fragmentomics allow affinity mapping of interactomes” (Nature Communications, 2022)

T1: ARHGEF11, O15085
T1 sequence (O15085 42-136, limits assumed, looked up): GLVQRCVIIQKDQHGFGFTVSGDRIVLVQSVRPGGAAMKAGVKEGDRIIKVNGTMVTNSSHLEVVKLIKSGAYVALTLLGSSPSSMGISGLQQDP

T2: DLG3_2, Q92796
T2 sequence (Q92796 221-321, limits assumed, looked up): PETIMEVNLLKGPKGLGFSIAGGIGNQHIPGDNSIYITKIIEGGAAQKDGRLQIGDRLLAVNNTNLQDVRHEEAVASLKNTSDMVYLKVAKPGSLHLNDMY

T3: FRMPD1, Q5SYB0
T3 sequence (Q5SYB0 52-145, limits assumed, looked up): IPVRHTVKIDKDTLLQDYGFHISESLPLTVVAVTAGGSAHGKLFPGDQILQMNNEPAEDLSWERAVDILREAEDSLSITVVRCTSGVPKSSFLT

T4: LIN7A, O14910
T4 sequence (O14910 103-200, limits assumed, looked up): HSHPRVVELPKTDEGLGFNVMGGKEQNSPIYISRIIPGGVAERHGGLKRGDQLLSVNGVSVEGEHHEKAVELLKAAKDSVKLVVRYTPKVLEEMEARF

T5: MPDZ_12, O75970
T5 sequence (O75970 1857-1958, limits assumed, looked up): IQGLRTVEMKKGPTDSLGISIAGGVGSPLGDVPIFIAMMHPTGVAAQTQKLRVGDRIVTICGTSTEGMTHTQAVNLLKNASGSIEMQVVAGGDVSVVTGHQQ

T6: PCLO, Q9Y6V0
T6 sequence (Q9Y6V0 4491-4600, limits assumed, looked up): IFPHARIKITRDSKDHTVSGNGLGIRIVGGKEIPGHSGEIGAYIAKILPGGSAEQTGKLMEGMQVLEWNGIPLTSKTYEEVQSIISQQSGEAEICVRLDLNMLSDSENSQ

T7: PTPN13_1, Q12923
T7 sequence (Q12923 1088-1188, limits assumed, looked up): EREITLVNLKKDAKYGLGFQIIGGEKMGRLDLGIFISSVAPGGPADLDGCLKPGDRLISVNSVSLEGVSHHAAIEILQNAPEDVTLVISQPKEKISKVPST

T8: SHANK1, Q9Y566
T8 sequence (Q9Y566 658-767, limits assumed, looked up): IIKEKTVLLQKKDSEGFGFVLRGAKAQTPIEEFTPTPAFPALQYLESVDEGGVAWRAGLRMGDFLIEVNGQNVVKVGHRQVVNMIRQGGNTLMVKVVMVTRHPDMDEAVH

T9: TX1BP3, O14907
T9 sequence (O14907 10-122, limits assumed, looked up): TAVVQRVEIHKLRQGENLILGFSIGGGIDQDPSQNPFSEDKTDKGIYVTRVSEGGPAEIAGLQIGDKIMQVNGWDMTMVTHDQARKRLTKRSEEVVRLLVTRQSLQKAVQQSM


biological target: T1, ARHGEF11, O15085; assay: holdup assay; parameters: key: below the threshold = too weak to quantify, mostly under pKd 3.1 to 4; settings: plain residues with an end cap or a label only (N-terminal biotin on a linker: ado-ado)

pKd	Binder
below the threshold	RKPKPSSSCC [RAB9A, P51151]
below the threshold	TASPAKETSF [SLC2A7, Q6PXP3]

biological target: DLG1_1, Q12959; assay: holdup assay; parameters: key: below the threshold = too weak to quantify, mostly under pKd 3.1 to 4; settings: plain residues with an end cap or a label only (N-terminal biotin on a linker: ado-ado)

pKd	Binder
below the threshold	RKPKPSSSCC [RAB9A, P51151]
below the threshold	TASPAKETSF [SLC2A7, Q6PXP3]

biological target: DLG2_3, Q15700; assay: holdup assay; parameters: key: below the threshold = too weak to quantify, mostly under pKd 3.1 to 4; settings: plain residues with an end cap or a label only (N-terminal biotin on a linker: ado-ado)

pKd	Binder
3.53	RKPKPSSSCC [RAB9A, P51151]
3.88	TASPAKETSF [SLC2A7, Q6PXP3]

biological target: T2, DLG3_2, Q92796; assay: holdup assay; parameters: key: below the threshold = too weak to quantify, mostly under pKd 3.1 to 4; settings: plain residues with an end cap or a label only (N-terminal biotin on a linker: ado-ado)

pKd	Binder
4.1	RKPKPSSSCC [RAB9A, P51151]
4.25	TASPAKETSF [SLC2A7, Q6PXP3]

biological target: DLG5_1, Q8TDM6; assay: holdup assay; parameters: key: below the threshold = too weak to quantify, mostly under pKd 3.1 to 4; settings: plain residues with an end cap or a label only (N-terminal biotin on a linker: ado-ado)
Sequence (Q8TDM6 617-713): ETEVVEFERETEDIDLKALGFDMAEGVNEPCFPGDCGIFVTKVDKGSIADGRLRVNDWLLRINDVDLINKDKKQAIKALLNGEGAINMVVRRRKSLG

pKd	Binder
below the threshold	RKPKPSSSCC [RAB9A, P51151]
below the threshold	TASPAKETSF [SLC2A7, Q6PXP3]

biological target: T3, FRMPD1, Q5SYB0; assay: holdup assay; parameters: key: below the threshold = too weak to quantify, mostly under pKd 3.1 to 4; settings: plain residues with an end cap or a label only (N-terminal biotin on a linker: ado-ado)

pKd	Binder
below the threshold	RKPKPSSSCC [RAB9A, P51151]
below the threshold	TASPAKETSF [SLC2A7, Q6PXP3]

biological target: GIPC2, Q8TF65; assay: holdup assay; parameters: key: below the threshold = too weak to quantify, mostly under pKd 3.1 to 4; settings: plain residues with an end cap or a label only (N-terminal biotin on a linker: ado-ado)
Sequence (Q8TF65 112-203): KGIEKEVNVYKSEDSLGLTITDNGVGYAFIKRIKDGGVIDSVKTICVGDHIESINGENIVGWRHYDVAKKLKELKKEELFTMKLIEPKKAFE

pKd	Binder
3.73	RKPKPSSSCC [RAB9A, P51151]
below the threshold	TASPAKETSF [SLC2A7, Q6PXP3]

biological target: GORASP2, Q9H8Y8; assay: holdup assay; parameters: key: below the threshold = too weak to quantify, mostly under pKd 3.1 to 4; settings: plain residues with an end cap or a label only (N-terminal biotin on a linker: ado-ado)

pKd	Binder
below the threshold	RKPKPSSSCC [RAB9A, P51151]
below the threshold	TASPAKETSF [SLC2A7, Q6PXP3]

biological target: GRASP, Q7Z6J2; assay: holdup assay; parameters: key: below the threshold = too weak to quantify, mostly under pKd 3.1 to 4; settings: plain residues with an end cap or a label only (N-terminal biotin on a linker: ado-ado)
Sequence (Q7Z6J2 96-193): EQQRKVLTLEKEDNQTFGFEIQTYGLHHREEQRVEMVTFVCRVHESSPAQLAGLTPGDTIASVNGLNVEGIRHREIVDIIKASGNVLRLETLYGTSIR

pKd	Binder
below the threshold	RKPKPSSSCC [RAB9A, P51151]
below the threshold	TASPAKETSF [SLC2A7, Q6PXP3]

biological target: GRID2IP_1, A4D2P6; assay: holdup assay; parameters: key: below the threshold = too weak to quantify, mostly under pKd 3.1 to 4; settings: plain residues with an end cap or a label only (N-terminal biotin on a linker: ado-ado)
Sequence (A4D2P6 1-87): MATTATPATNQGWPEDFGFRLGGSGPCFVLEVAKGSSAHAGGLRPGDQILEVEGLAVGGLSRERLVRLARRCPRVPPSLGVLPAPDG

pKd	Binder
below the threshold	RKPKPSSSCC [RAB9A, P51151]
below the threshold	TASPAKETSF [SLC2A7, Q6PXP3]

biological target: Inadl_1, Q8NI35; assay: holdup assay; parameters: key: below the threshold = too weak to quantify, mostly under pKd 3.1 to 4; settings: plain residues with an end cap or a label only (N-terminal biotin on a linker: ado-ado)
Sequence (Q8NI35 113-229): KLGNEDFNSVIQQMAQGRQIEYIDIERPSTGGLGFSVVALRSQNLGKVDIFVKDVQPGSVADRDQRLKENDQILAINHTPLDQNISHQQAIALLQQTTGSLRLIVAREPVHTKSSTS

pKd	Binder
below the threshold	RKPKPSSSCC [RAB9A, P51151]
below the threshold	TASPAKETSF [SLC2A7, Q6PXP3]

biological target: Inadl_10, Q8NI35; assay: holdup assay; parameters: key: below the threshold = too weak to quantify, mostly under pKd 3.1 to 4; settings: plain residues with an end cap or a label only (N-terminal biotin on a linker: ado-ado)
Sequence (Q8NI35 1673-1763): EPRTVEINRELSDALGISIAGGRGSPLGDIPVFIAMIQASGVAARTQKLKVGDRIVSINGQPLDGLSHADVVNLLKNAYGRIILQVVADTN

pKd	Binder
below the threshold	RKPKPSSSCC [RAB9A, P51151]
below the threshold	TASPAKETSF [SLC2A7, Q6PXP3]

biological target: Inadl_5, Q8NI35; assay: holdup assay; parameters: key: below the threshold = too weak to quantify, mostly under pKd 3.1 to 4; settings: plain residues with an end cap or a label only (N-terminal biotin on a linker: ado-ado)
Sequence (Q8NI35 673-780): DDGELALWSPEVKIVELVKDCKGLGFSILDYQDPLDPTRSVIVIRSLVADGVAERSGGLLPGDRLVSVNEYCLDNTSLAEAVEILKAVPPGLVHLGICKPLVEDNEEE

pKd	Binder
below the threshold	RKPKPSSSCC [RAB9A, P51151]
below the threshold	TASPAKETSF [SLC2A7, Q6PXP3]

biological target: Inadl_9, Q8NI35; assay: holdup assay; parameters: key: below the threshold = too weak to quantify, mostly under pKd 3.1 to 4; settings: plain residues with an end cap or a label only (N-terminal biotin on a linker: ado-ado)
Sequence (Q8NI35 1530-1615): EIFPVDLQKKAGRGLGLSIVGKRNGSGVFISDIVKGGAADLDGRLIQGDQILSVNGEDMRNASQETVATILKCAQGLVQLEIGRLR

pKd	Binder
below the threshold	RKPKPSSSCC [RAB9A, P51151]
below the threshold	TASPAKETSF [SLC2A7, Q6PXP3]

biological target: T4, LIN7A, O14910; assay: holdup assay; parameters: key: below the threshold = too weak to quantify, mostly under pKd 3.1 to 4; settings: plain residues with an end cap or a label only (N-terminal biotin on a linker: ado-ado)

pKd	Binder
below the threshold	RKPKPSSSCC [RAB9A, P51151]
3.77	TASPAKETSF [SLC2A7, Q6PXP3]

biological target: LNX1_1, Q8TBB1; assay: holdup assay; parameters: key: below the threshold = too weak to quantify, mostly under pKd 3.1 to 4; settings: plain residues with an end cap or a label only (N-terminal biotin on a linker: ado-ado)
Sequence (Q8TBB1 261-371): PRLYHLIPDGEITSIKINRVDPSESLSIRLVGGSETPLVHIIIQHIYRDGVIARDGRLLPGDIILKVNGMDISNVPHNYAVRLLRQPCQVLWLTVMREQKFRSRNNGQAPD

pKd	Binder
below the threshold	RKPKPSSSCC [RAB9A, P51151]
below the threshold	TASPAKETSF [SLC2A7, Q6PXP3]

biological target: MAGI2_2, Q86UL8; assay: holdup assay; parameters: key: below the threshold = too weak to quantify, mostly under pKd 3.1 to 4; settings: plain residues with an end cap or a label only (N-terminal biotin on a linker: ado-ado)
Sequence (Q86UL8 410-522): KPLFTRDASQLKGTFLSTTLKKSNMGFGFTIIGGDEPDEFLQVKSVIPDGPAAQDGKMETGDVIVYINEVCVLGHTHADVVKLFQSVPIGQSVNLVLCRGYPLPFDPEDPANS

pKd	Binder
below the threshold	RKPKPSSSCC [RAB9A, P51151]
below the threshold	TASPAKETSF [SLC2A7, Q6PXP3]

biological target: MAGI2_3, Q86UL8; assay: holdup assay; parameters: key: below the threshold = too weak to quantify, mostly under pKd 3.1 to 4; settings: plain residues with an end cap or a label only (N-terminal biotin on a linker: ado-ado)
Sequence (Q86UL8 600-682): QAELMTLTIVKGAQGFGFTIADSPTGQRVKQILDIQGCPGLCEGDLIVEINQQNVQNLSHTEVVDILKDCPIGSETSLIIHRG

pKd	Binder
below the threshold	RKPKPSSSCC [RAB9A, P51151]
below the threshold	TASPAKETSF [SLC2A7, Q6PXP3]

biological target: MAGI2_6, Q86UL8; assay: holdup assay; parameters: key: below the threshold = too weak to quantify, mostly under pKd 3.1 to 4; settings: plain residues with an end cap or a label only (N-terminal biotin on a linker: ado-ado)
Sequence (Q86UL8 1141-1229): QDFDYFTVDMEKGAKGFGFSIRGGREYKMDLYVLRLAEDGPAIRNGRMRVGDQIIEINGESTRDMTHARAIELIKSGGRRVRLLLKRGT

pKd	Binder
below the threshold	RKPKPSSSCC [RAB9A, P51151]
4.1	TASPAKETSF [SLC2A7, Q6PXP3]

biological target: MAST2, Q6P0Q8; assay: holdup assay; parameters: key: below the threshold = too weak to quantify, mostly under pKd 3.1 to 4; settings: plain residues with an end cap or a label only (N-terminal biotin on a linker: ado-ado)
Sequence (Q6P0Q8 1099-1202): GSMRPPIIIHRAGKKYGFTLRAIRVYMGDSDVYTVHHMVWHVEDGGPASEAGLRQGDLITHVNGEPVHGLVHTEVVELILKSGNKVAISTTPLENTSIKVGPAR

pKd	Binder
3.69	RKPKPSSSCC [RAB9A, P51151]
5.21	TASPAKETSF [SLC2A7, Q6PXP3]

biological target: T5, MPDZ_12, O75970; assay: holdup assay; parameters: key: below the threshold = too weak to quantify, mostly under pKd 3.1 to 4; settings: plain residues with an end cap or a label only (N-terminal biotin on a linker: ado-ado)

pKd	Binder
below the threshold	RKPKPSSSCC [RAB9A, P51151]
below the threshold	TASPAKETSF [SLC2A7, Q6PXP3]

biological target: NHERF2_2, Q15599; assay: holdup assay; parameters: key: below the threshold = too weak to quantify, mostly under pKd 3.1 to 4; settings: plain residues with an end cap or a label only (N-terminal biotin on a linker: ado-ado)
Sequence (Q15599 142-238): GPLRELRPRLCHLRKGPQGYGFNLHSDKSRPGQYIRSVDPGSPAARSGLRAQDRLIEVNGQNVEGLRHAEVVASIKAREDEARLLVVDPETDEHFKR

pKd	Binder
below the threshold	RKPKPSSSCC [RAB9A, P51151]
4.66	TASPAKETSF [SLC2A7, Q6PXP3]

biological target: NHERF4_4, Q86UT5; assay: holdup assay; parameters: key: below the threshold = too weak to quantify, mostly under pKd 3.1 to 4; settings: plain residues with an end cap or a label only (N-terminal biotin on a linker: ado-ado)
Sequence (Q86UT5 464-550): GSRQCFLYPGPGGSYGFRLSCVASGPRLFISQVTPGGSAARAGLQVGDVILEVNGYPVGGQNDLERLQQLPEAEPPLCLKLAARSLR

pKd	Binder
below the threshold	RKPKPSSSCC [RAB9A, P51151]
below the threshold	TASPAKETSF [SLC2A7, Q6PXP3]

biological target: T6, PCLO, Q9Y6V0; assay: holdup assay; parameters: key: below the threshold = too weak to quantify, mostly under pKd 3.1 to 4; settings: plain residues with an end cap or a label only (N-terminal biotin on a linker: ado-ado)

pKd	Binder
below the threshold	RKPKPSSSCC [RAB9A, P51151]
below the threshold	TASPAKETSF [SLC2A7, Q6PXP3]

biological target: PDZRN4_1, Q6ZMN7; assay: holdup assay; parameters: key: below the threshold = too weak to quantify, mostly under pKd 3.1 to 4; settings: plain residues with an end cap or a label only (N-terminal biotin on a linker: ado-ado)
Sequence (Q6ZMN7 213-318): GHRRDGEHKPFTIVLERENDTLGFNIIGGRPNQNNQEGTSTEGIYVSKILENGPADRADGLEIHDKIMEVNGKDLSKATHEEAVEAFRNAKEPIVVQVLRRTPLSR

pKd	Binder
below the threshold	RKPKPSSSCC [RAB9A, P51151]
below the threshold	TASPAKETSF [SLC2A7, Q6PXP3]

biological target: T7, PTPN13_1, Q12923; assay: holdup assay; parameters: key: below the threshold = too weak to quantify, mostly under pKd 3.1 to 4; settings: plain residues with an end cap or a label only (N-terminal biotin on a linker: ado-ado)

pKd	Binder
below the threshold	RKPKPSSSCC [RAB9A, P51151]
below the threshold	TASPAKETSF [SLC2A7, Q6PXP3]

biological target: PTPN3, P26045; assay: holdup assay; parameters: key: below the threshold = too weak to quantify, mostly under pKd 3.1 to 4; settings: plain residues with an end cap or a label only (N-terminal biotin on a linker: ado-ado)
Sequence (P26045 505-587): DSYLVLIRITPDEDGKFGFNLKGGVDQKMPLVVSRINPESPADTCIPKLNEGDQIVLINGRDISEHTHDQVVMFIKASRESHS

pKd	Binder
3.83	RKPKPSSSCC [RAB9A, P51151]
5.22	TASPAKETSF [SLC2A7, Q6PXP3]

biological target: T8, SHANK1, Q9Y566; assay: holdup assay; parameters: key: below the threshold = too weak to quantify, mostly under pKd 3.1 to 4; settings: plain residues with an end cap or a label only (N-terminal biotin on a linker: ado-ado)

pKd	Binder
below the threshold	RKPKPSSSCC [RAB9A, P51151]
below the threshold	TASPAKETSF [SLC2A7, Q6PXP3]

biological target: T9, TX1BP3, O14907; assay: holdup assay; parameters: key: below the threshold = too weak to quantify, mostly under pKd 3.1 to 4; settings: plain residues with an end cap or a label only (N-terminal biotin on a linker: ado-ado)

pKd	Binder
3.89	RKPKPSSSCC [RAB9A, P51151]
3.79	TASPAKETSF [SLC2A7, Q6PXP3]
